Reference: the supplement of paper PMC7877785
± gives the uncertainty stated by the source.

Test: self-splicing fitness, log relative to wild type (ln ratio); higher = more splicing; Tetrahymena group I intron in knt gene, E. coli kanamycin selection, DiMSum; sequences stand for … in CUCUCU…GGAGGGAAAAGUUAUCAGGCAUGCACCUGGUAGCUAGUCUUUAAACCAAUAGAUUGCAUCGGUUUAAAAGGCAAGACCGUCAAAUUGCGGGAAAGGGGUCAACAGCCGUUCAGUACCAAGUCUCAGGGGAAACUUUGAGAUGGCCUUGCAAAGGGUAUGGUAAUAAGCUGACGGACAUGGUCCUAACCACGCAGCCAAGUCCUAAGUCAACAGAUCUUCUGUUGAUAUGGAUGCAGUUCACAGACUAAAUGUCGGUCGGGGAAGAUGUAUUCUUCUCAUAAGAUAUAGUCGGACCUCUCCUUAAUGGGAGCUAGCGGAUGAAGUGAUGCAACACUGGAGCCGCUGGGAACUAAUUUGUAUGCGAAAGUAUAUUGAUUAGUUUUGGAGUACUCGUGGUCG
Method in brief: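 Library with all eight P1ex-region intron nucleotides randomised, intron inside the knt kanamycin-resistance gene on pET-22b(+), in E. coli BL21(DE3). Cells grew overnight at 37°C or 30°C on LB agar with or without 25 μg/mL kanamycin (plus 100 μg/mL carbenicillin, 50 μM IPTG, 0.2% rhamnose), in six replicate transformations. Pooled colonies were amplicon-sequenced on Illumina HiSeq 2500. DiMSum fitness is the error-weighted combination of wild-type-normalised replicate fold changes, kanamycin versus none.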

| Sequence | self-splicing fitness (ln) (30 °C) | self-splicing fitness (ln) (37 °C) |
| --- | --- | --- |
| ACUAAGCAAUAUUACGCCCC | -0.566 ± 0.13 | 0.127 ± 0.17 |
| ACUAAGCAAUAUUACGGAAG | -2.59 ± 0.13 | -1.55 ± 0.15 |
| ACUAAGCAAUAUUACGGACA | -0.625 ± 0.094 | -0.362 ± 0.12 |
| ACUAAGCAAUAUUACGGGAC | -2.94 ± 0.14 | -0.635 ± 0.12 |
| ACUAAGCAAUAUUACGGGGC | -4.09 ± 0.42 | -2.79 ± 0.24 |
| ACUAAGCAAUAUUACGGGUC | -3.49 ± 0.34 | -0.75 ± 0.23 |
| ACUAAGCAAUAUUACGUAGG | -1.4 ± 0.074 | -0.98 ± 0.1 |
| ACUAAGCAAUAUUACGUCGG | -1.99 ± 0.068 | -1.04 ± 0.087 |
| ACUAAGCAAUAUUACGUGUA | -2.6 ± 0.13 | -1.38 ± 0.12 |
| ACUAAGCAAUAUUACGUUAU | -3.49 ± 0.13 | -1.55 ± 0.11 |
| ACUAAGCAAUAUUACGUUGA | -2.67 ± 0.12 | -1.92 ± 0.13 |
| ACUCAGCAAUAUUACGAGAA | -1.51 ± 0.21 | -0.586 ± 0.2 |
| ACUCAGCAAUAUUACGAGGU | -3.47 ± 0.18 | -1.68 ± 0.17 |
| ACUCAGCAAUAUUACGCAAA | -2.02 ± 0.12 | -0.838 ± 0.11 |
| ACUCAGCAAUAUUACGCAAC | -2.14 ± 0.17 | -2.43 ± 0.26 |
| ACUCAGCAAUAUUACGCACG | -1 ± 0.078 | -0.784 ± 0.13 |
| ACUCAGCAAUAUUACGGAUG | -1.36 ± 0.068 | -0.69 ± 0.098 |
| ACUCAGCAAUAUUACGGCCG | -1.87 ± 0.13 | -0.609 ± 0.15 |
| ACUCAGCAAUAUUACGGCGU | -0.555 ± 0.059 | 0.0604 ± 0.074 |

| Sequence | self-splicing fitness (ln) (30 °C) | self-splicing fitness (ln) (37 °C) |
| --- | --- | --- |
| ACUCAGCAAUAUUACGGUAC | -2.63 ± 0.13 | -3.01 ± 0.21 |
| ACUCAGCAAUAUUACGGUCG | -3.23 ± 0.12 | -1.33 ± 0.1 |
| ACUCAGCAAUAUUACGUACG | -2.58 ± 0.14 | -0.864 ± 0.11 |
| ACUCAGCAAUAUUACGUCUA | -0.845 ± 0.081 | -0.152 ± 0.076 |
| ACUCAGCAAUAUUACGUCUG | -3.57 ± 0.14 | -2.74 ± 0.16 |
| ACUGAGCAAUAUUACGAAGA | -2.33 ± 0.22 | -1.64 ± 0.2 |
| ACUGAGCAAUAUUACGAAUA | -2.97 ± 0.28 | -2.65 ± 0.29 |
| ACUGAGCAAUAUUACGAGCU | – | -1.02 ± 0.32 |
| ACUGAGCAAUAUUACGCAAG | -2.68 ± 0.28 | -1.54 ± 0.19 |
| ACUGAGCAAUAUUACGCACC | -2 ± 0.4 | -2.15 ± 0.42 |
| ACUGAGCAAUAUUACGCCUG | -2.36 ± 0.19 | -1.48 ± 0.19 |
| ACUGAGCAAUAUUACGCCUU | -1.55 ± 0.2 | -0.418 ± 0.24 |
| ACUGAGCAAUAUUACGCGUG | -2.2 ± 0.092 | -1.05 ± 0.1 |
| ACUGAGCAAUAUUACGCUAA | -3.41 ± 0.43 | -3.71 ± 0.39 |
| ACUGAGCAAUAUUACGCUCG | -2.59 ± 0.24 | -1.59 ± 0.23 |
| ACUGAGCAAUAUUACGGACU | -1.08 ± 0.077 | -0.672 ± 0.093 |
| ACUGAGCAAUAUUACGGAGU | -2.8 ± 0.41 | -1.78 ± 0.33 |
| ACUGAGCAAUAUUACGGCCC | -1.95 ± 0.3 | -0.993 ± 0.26 |
| ACUGAGCAAUAUUACGGGCG | -2.3 ± 0.15 | -1.01 ± 0.18 |
